Measurements reported in patent US12698507B2, “Methods and compositions for conferring and/or enhancing herbicide tolerance using protoporphyrinogen IX oxidase of various cyanobacteria or variant thereof” (FarmHannong Co., Ltd., priority 2019, dated 2026).
Numbering of substitutions follows the chain as printed. Names may count otherwise.

B1: CyPPO19 R89A + A167L + L327T + F360I: variant of CyPPO19 PPO protein (SEQ ID NO: 1) (protein)
chain: MSEVDVAIVGGGLSGLSLAWRLQQSAPQYSVVLLEASDRLGGNITTQTAEGFVWELGPNSFAPTPALLQLIAEVGLQSELIRGDRHLPAYIYWRGQLYPLQPTRPLALATSNLLSPWGKVRAALGALGFVPPYLGSGDESVNSFFRRHLGQEVAERLVAPFVSGVYLGDPQQLSAAAAFRRIAQLEKLGGGLIAGALHLRRQQAPKPKPPTSVQMRPGELGSFKEGLAALPRAIAQQLKAPIHLQTPVQEITPDPKGGYLLRSGEQTWRARSVVLATPAYQTAELVAPFQPAIARVLATIPYPTVACVVLAYPAGLGRSVRPGFGVTIPRSQGIRTLGTIWSSCLFPQRTPAGWQVFTSIIGGATDPDLASLSEEAIVQQVQQDLNRLLDLPAAKARLLGMKVWRRAIPQYMVGYPEQWQQVTHALSQTPGLFLCSNYAEGVALGDRVEHGNRTAAAVAAYLSGGQP
modifications: Synthetic_PPO of Thermosynechococcus elongatus PKUAC-SCTE542 (comprising GenBank No. CP032152.1)
B2: CyPPO19 A167L + V305M + I408R + F360M: variant of CyPPO19 PPO protein (SEQ ID NO: 1) (protein)
chain: B1 chain with A89R, V305M, T327L, I360M, I408R
modifications: Synthetic_PPO of Thermosynechococcus elongatus PKUAC-SCTE542 (comprising GenBank No. CP032152.1)
B3: CyPPO19 V305L + L327T + I408W + F360V: variant of CyPPO19 PPO protein (SEQ ID NO: 1); printed 305L in Table 9 (protein)
chain: B1 chain with A89R, L167A, V305L, I360V, I408W
modifications: Synthetic_PPO of Thermosynechococcus elongatus PKUAC-SCTE542 (comprising GenBank No. CP032152.1)
B4: CyPPO19 V165S + A167C + L327T + F360M: variant of CyPPO19 PPO protein (SEQ ID NO: 1) (protein)
chain: B1 chain with A89R, V165S, L167C, I360M
modifications: Synthetic_PPO of Thermosynechococcus elongatus PKUAC-SCTE542 (comprising GenBank No. CP032152.1)
B5: CyPPO19 R89A + A167C + I408R + F360M: variant of CyPPO19 PPO protein (SEQ ID NO: 1) (protein)
chain: B1 chain with L167C, T327L, I360M, I408R
modifications: Synthetic_PPO of Thermosynechococcus elongatus PKUAC-SCTE542 (comprising GenBank No. CP032152.1)
B6: CyPPO19 V165C + A167C + I408W + F360T: variant of CyPPO19 PPO protein (SEQ ID NO: 1) (protein)
chain: B1 chain with A89R, V165C, L167C, T327L, I360T, I408W
modifications: Synthetic_PPO of Thermosynechococcus elongatus PKUAC-SCTE542 (comprising GenBank No. CP032152.1)
B7: CyPPO19 V165S + F360L: variant of CyPPO19 PPO protein (SEQ ID NO: 1) (protein)
chain: B1 chain with A89R, V165S, L167A, T327L, I360L
modifications: Synthetic_PPO of Thermosynechococcus elongatus PKUAC-SCTE542 (comprising GenBank No. CP032152.1)
B8: CyPPO19 V165S + F360V: variant of CyPPO19 PPO protein (SEQ ID NO: 1) (protein)
chain: B1 chain with A89R, V165S, L167A, T327L, I360V
modifications: Synthetic_PPO of Thermosynechococcus elongatus PKUAC-SCTE542 (comprising GenBank No. CP032152.1)
B9: CyPPO19 V165C + A167I + V305M + F360V: variant of CyPPO19 PPO protein (SEQ ID NO: 1) (protein)
chain: B1 chain with A89R, V165C, L167I, V305M, T327L, I360V
modifications: Synthetic_PPO of Thermosynechococcus elongatus PKUAC-SCTE542 (comprising GenBank No. CP032152.1)
B10: CyPPO19 A167I + V305L + L327T + F360V: variant of CyPPO19 PPO protein (SEQ ID NO: 1) (protein)
chain: B1 chain with A89R, L167I, V305L, I360V
modifications: Synthetic_PPO of Thermosynechococcus elongatus PKUAC-SCTE542 (comprising GenBank No. CP032152.1)

Each molecule was assayed on PPO-deficient BT3 E. coli (ΔPPO) (assay: PPO-inhibiting herbicide tolerance test of PPO variants in E. coli (growth on herbicide-containing LB agar)). Conditions: CyPPO19 variants in BT3 (ΔPPO) E. coli; LB agar with 0 to 2,000 μM herbicide, 37° C., dark, 16-20 hours.
Type: cell-based
Method in brief: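 Tolerance was scored against wild-type enzyme: '−' for equal growth, one '+' per 10-fold gain, up to '+++++'. ΔPPO BT3 cells carrying variant plasmids, spotted as a 10-fold dilution series from OD600=0.5, grew 16-20 h at 37° C. in the dark on ampicillin LB agar containing 0 to 2,000 μM herbicide.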

Molecule	tolerance level relative to wild type, Carfentrazone	tolerance level relative to wild type, Flumioxazin	tolerance level relative to wild type, Fomesafen	tolerance level relative to wild type, Oxyfluorfen	tolerance level relative to wild type, Saflufenacil	tolerance level relative to wild type, Sulfentrazone	tolerance level relative to wild type, Tiafenacil
B1	++ (‘+’ per each 10-fold resistance)	++++ (‘+’ per each 10-fold resistance)	+++ (‘+’ per each 10-fold resistance)	+++++ (until ‘+++++’ as maximal resistance)	++++ (‘+’ per each 10-fold resistance)	++++ (‘+’ per each 10-fold resistance)	++++ (‘+’ per each 10-fold resistance)
B2	+ (‘+’ per each 10-fold resistance)	+++++ (until ‘+++++’ as maximal resistance)	+++ (‘+’ per each 10-fold resistance)	+++ (‘+’ per each 10-fold resistance)	+++++ (until ‘+++++’ as maximal resistance)	+++++ (until ‘+++++’ as maximal resistance)	+++++ (until ‘+++++’ as maximal resistance)
B3	+ (‘+’ per each 10-fold resistance)	+++++ (until ‘+++++’ as maximal resistance)	+++ (‘+’ per each 10-fold resistance)	+++ (‘+’ per each 10-fold resistance)	+++++ (until ‘+++++’ as maximal resistance)	+++++ (until ‘+++++’ as maximal resistance)	+++++ (until ‘+++++’ as maximal resistance)
B4	+ (‘+’ per each 10-fold resistance)	++++ (‘+’ per each 10-fold resistance)	++ (‘+’ per each 10-fold resistance)	++ (‘+’ per each 10-fold resistance)	++++ (‘+’ per each 10-fold resistance)	++++ (‘+’ per each 10-fold resistance)	++++ (‘+’ per each 10-fold resistance)
B5	+ (‘+’ per each 10-fold resistance)	++++ (‘+’ per each 10-fold resistance)	++ (‘+’ per each 10-fold resistance)	++ (‘+’ per each 10-fold resistance)	+++ (‘+’ per each 10-fold resistance)	++ (‘+’ per each 10-fold resistance)	+++ (‘+’ per each 10-fold resistance)
B6	+ (‘+’ per each 10-fold resistance)	++++ (‘+’ per each 10-fold resistance)	++ (‘+’ per each 10-fold resistance)	++ (‘+’ per each 10-fold resistance)	++++ (‘+’ per each 10-fold resistance)	+++ (‘+’ per each 10-fold resistance)	++++ (‘+’ per each 10-fold resistance)
B7	+ (‘+’ per each 10-fold resistance)	++++ (‘+’ per each 10-fold resistance)	++ (‘+’ per each 10-fold resistance)	++ (‘+’ per each 10-fold resistance)	++++ (‘+’ per each 10-fold resistance)	+++ (‘+’ per each 10-fold resistance)	++++ (‘+’ per each 10-fold resistance)
B8	+ (‘+’ per each 10-fold resistance)	++++ (‘+’ per each 10-fold resistance)	+ (‘+’ per each 10-fold resistance)	++ (‘+’ per each 10-fold resistance)	++++ (‘+’ per each 10-fold resistance)	++++ (‘+’ per each 10-fold resistance)	++++ (‘+’ per each 10-fold resistance)
B9	+ (‘+’ per each 10-fold resistance)	++ (‘+’ per each 10-fold resistance)	+ (‘+’ per each 10-fold resistance)	+ (‘+’ per each 10-fold resistance)	++ (‘+’ per each 10-fold resistance)	+ (‘+’ per each 10-fold resistance)	++ (‘+’ per each 10-fold resistance)
B10	+ (‘+’ per each 10-fold resistance)	+++++ (until ‘+++++’ as maximal resistance)	+++ (‘+’ per each 10-fold resistance)	+++ (‘+’ per each 10-fold resistance)	++++ (‘+’ per each 10-fold resistance)	++++ (‘+’ per each 10-fold resistance)	+++++ (until ‘+++++’ as maximal resistance)
